Data published in US20240092901A1.

Experiments:
Assay in all cases: ELISA
[1] = target: mouse Ror2 (mouse) (UniProt Q9Z138)
[2] = target: human Ror2 (receptor tyrosine kinase-like orphan receptor 2) (human) (UniProt Q01974)
[3] = target: cynomolgus Ror2 (cynomolgus)

Chain of mouse Ror2 (mouse) (Q9Z138 34-403 limits assumed): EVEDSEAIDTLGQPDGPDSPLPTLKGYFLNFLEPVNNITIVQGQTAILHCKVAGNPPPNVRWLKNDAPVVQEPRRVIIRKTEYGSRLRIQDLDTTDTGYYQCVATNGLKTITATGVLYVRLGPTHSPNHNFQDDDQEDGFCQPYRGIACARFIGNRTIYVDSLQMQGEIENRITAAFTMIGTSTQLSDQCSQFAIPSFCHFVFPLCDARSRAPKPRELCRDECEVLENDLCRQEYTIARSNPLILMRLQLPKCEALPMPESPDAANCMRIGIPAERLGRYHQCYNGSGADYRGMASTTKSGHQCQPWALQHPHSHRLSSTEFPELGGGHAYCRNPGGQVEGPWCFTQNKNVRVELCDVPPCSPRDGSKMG
Chain of human Ror2 (receptor tyrosine kinase-like orphan receptor 2) (human) (Q01974 34-403 limits assumed): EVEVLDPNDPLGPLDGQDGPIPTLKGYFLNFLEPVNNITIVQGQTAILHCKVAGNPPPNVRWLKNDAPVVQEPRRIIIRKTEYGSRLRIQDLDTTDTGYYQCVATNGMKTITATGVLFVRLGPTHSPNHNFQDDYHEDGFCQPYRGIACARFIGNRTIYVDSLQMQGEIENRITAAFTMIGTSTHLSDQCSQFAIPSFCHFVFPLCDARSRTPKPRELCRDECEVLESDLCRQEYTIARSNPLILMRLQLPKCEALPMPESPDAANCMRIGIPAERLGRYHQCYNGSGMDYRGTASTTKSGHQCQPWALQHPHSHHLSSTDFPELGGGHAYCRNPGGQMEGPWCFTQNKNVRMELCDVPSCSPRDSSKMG

EC50 [1]: 7.65 µg/mL
EC50 [2]: 0.201 µg/mL
EC50 [3]: 0.327 µg/mL
B1: conditionally active antibody BAP048 (antibody, from a related filing, V domains shown)
VH: EVQLVQSGAEVKKPGESLRISCKGSGYTFTEYTMHWVRQAPGQGLEWMGGINTNNGGTGYNQKFKGRVTISADKSISTAYLQWSSLKASDTAMYYCAHGSLYSYGNSYFDYWGQGTLVTVSS
VL: AIQLTQSPSSLSASVGDRVTITCSATSSVSYMHWYLQKPGQSPQLLIYGTSNLASGVPDRFSGSGSGTDFTLKISRVEAEDVGVYYCQQRSSYPFTFGQGTKVEIK
